Where “and” joins values, the source holds several entries; their conditions need not be identical. Identical values can stand only once. Like-named read-outs stand apart in the source and are kept apart here.
Tests used:
[1] = target: full length human G208C NFU1 (human) (UniProt Q9UMS0); assay: AUC
[2] = target: full length human G208C NFU1 (human) (UniProt Q9UMS0); assay: AUC; remark: listed apart in the source

percent dimer (with 1 mM TCEP) [1]: 60%
percent dimer (without TCEP) [1]: 58%
percent higher order oligomer (with 1 mM TCEP) [1]: 1.5%
percent higher order oligomer (without TCEP) [1]: 6%
percent monomer (with 1 mM TCEP) [1]: 30%
percent monomer (without TCEP) [1]: 29%
stoichiometry N [1]: 2
percent dimer (holo protein) [2]: 65.6%
stoichiometry N [2]: 2 and 4
Substance: full length human G208C NFU1 (from UniProt Q9UMS0 10-254) (natural protein)

Reference: publication PMC5466808
